# Columns and labels:
# C57BL/6 mice [1] = test: Plasma G-CSF in SAA-injected mice (ELISA); assay type: in vivo, mouse
# Protocol: (§1) SAA stimulates neutrophilia through G-CSF: To investigate whether SAA-induced G-CSF secretion contributes to neutrophilia, in vivo studies were conducted with daily administration of SAA in mice. C57BL/6 mice were injected subcutaneously (s.c.) with a daily dose of 120 μg SAA/kg body weight (˜3 μg of SAA each mouse) for 7 consecutive days. At different time points after the injection was initiated, blood neutrophil numbers were determined and the results were compared to neutrophil numbers prior to SAA administration. […] To establish a causal relationship between SAA-induced G-CSF production and neutrophilia in mice, wild-type C57BL/6 mice wre compared with csf3^−/− mice for changes in neutrophil count.
# Measurement of G-CSF expression: To measure the secreted G-CSF from human monocytes and mouse macrophages in vitro, cells were placed in serum-free DMEM medium and stimulated with the indicated ligands. Cell-free supernatants were collected by centrifugation at 1,000×g for 30 sec and assayed for human or mouse G-CSF using ELISA. Human PBMC were used as 2×10^6 cells/ml/sample, and mouse BMDM were seeded at 10^6 cells/ml and used as 0.5 ml/sample. To measure mouse plasma G-CSF, blood samples were collected and centrifuged at 1,000-2,000×g for 10 min at 4° C. Plasma samples were appropriately diluted and then checked for G-CSF concentration using ELISA. […] Real-time quantitative PCR was performed on a ABI PRISM 7000 Sequence Detection System (Applied Biosystems) as described previously (He et al., 2006). All data were analyzed with the ABI PRISM 7000 SDS software (version 1.1). Relative level of mRNA for G-CSF was determined by normalizing with β-actin mRNA level. […]
# SAA-induced neutrophilia: For analysis of SAA-induced neutrophil increase, SAA was injected subcutaneously into both G-CSF deficient (csf3^−/−) (n=5) and csf3^+/+ (n=5), age- and sex-matched littermates (8-9 weeks, male), at doses of 120 μg/kg/d in 200 μl PBS. […] Total white blood cell (WBC) count and WBC differential count were determined using a Hemavet 950FS multispecies hematology analyzer (Drew Scientific).
# TLR2:Fc fusion protein = biological target: T1, TLR2:Fc fusion protein (Homo sapiens, UniProt O60603); test: SAA-TLR2 interaction, ELISA-like binding assay; conditions: 0.0625 to 8 μg/ml ligand coated, 2 μg/ml TLR2:Fc
# T1 construct: measured in an ELISA-like assay using a TLR2 extracellular domain:Fc fragment fusion protein; made in house; host or cells: CHO cells (pFuse-Fc vector, InvivoGen), purified from culture supernatant on protein A
# T1 sequence (O60603 21-588 limits assumed): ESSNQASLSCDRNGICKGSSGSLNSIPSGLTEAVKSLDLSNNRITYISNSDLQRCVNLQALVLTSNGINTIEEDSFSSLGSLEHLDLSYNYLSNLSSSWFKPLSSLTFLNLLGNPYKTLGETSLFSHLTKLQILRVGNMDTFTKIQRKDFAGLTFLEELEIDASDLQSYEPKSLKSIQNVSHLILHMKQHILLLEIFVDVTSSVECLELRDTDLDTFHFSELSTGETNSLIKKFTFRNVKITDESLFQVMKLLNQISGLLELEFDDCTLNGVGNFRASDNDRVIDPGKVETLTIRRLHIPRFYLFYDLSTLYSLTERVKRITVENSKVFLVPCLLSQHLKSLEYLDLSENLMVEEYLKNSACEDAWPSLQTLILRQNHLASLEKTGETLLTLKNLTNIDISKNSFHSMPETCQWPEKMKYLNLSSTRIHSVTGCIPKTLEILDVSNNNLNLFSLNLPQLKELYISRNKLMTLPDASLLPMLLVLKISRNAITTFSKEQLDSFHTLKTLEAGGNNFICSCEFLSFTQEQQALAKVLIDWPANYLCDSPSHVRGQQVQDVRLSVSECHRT
# Source text: Another example of a method for screening antagonists that disrupt the SAA/TLR2 interaction involves a binding assay that includes a TLR2 ectodomain (extracellular domain) fused to an Fc fragment of immunoglobulin (TLR2:Fc), such as the assay used in FIG. 9B. This assay is typically used as a follow-up or secondary assay to that assay described above. In other words, any compounds collected from the assay described above are subjected to the TLR2:Fc-based binding assay to confirm that the antagonistic effect is on the disruption of SAA-TLR2 binding. This method is generally carried out as follows and is also described in the Examples. A TLR2:Fc fusion protein is generated such that the N-terminal 588 amino acids of human TLR2 are fused in frame to the Fc portion of mouse IgG2a. The cDNA encoding for the resulting chimeric protein is cloned in pFuse-Fc vector (InvivoGen), and stably transfected into CHO cells. […] Absorbance at 450 nm is measured on a SpectraMax 340 plate reader (Molecular Devices).
# Assays for SAA-TLR2 interaction: The TL2:Fc fusion protein was generated such that the N-terminal 588 amino acids of human TLR2 protein were fused in frame with the Fc portion of mouse IgG2a. […] Absorbance at 450 nm was measured on a SpectraMax 340 plate reader (Molecular Devices). […]
# C57BL/6 mice [2] = test: SAA-induced neutrophilia in mice; assay type: in vivo, mouse
# Protocol: as §1
# SAA-induced neutrophilia: For analysis of SAA-induced neutrophil increase, SAA was injected subcutaneously into both G-CSF deficient (csf3^−/−) (n=5) and csf3^+/+ (n=5), age- and sex-matched littermates (8-9 weeks, male), at doses of 120 μg/kg/d in 200 μl PBS. SAA was administered daily for 7 consecutive days (168 h). Blood samples were collected before and at 48, 120, and 168 h after the initial SAA injection. Age and sex-matched mice of both tlr2^−/− (n=7) and C57BL/6 (n=7) were also used for this experiment. Blood was collected by eye puncture using heparinized capillaries and placed into EDTA-treated tubes. Total white blood cell (WBC) count and WBC differential count were determined using a Hemavet 950FS multispecies hematology analyzer (Drew Scientific).
molecule,measurement,setting,value
"SAA: Recombinant human SAA purchased from PeproTech; major acute-phase protein of 104 amino acids (protein, UniProt P0DJI8 19-122, looked up) Serum amyloid A-1 protein: RSFFSFLGEAFDGARDMWRAYSDMREANYIGSDKYFHARGNYDAAKRGPGGAWAAEVITDARENIQRFFGHGAEDSLADQAANEWGRSGKDPNHFRPAGLPEKY",plasma G-CSF level,"C57BL/6 mice [1]; C57BL/6 mice, SAA 120 μg/kg s.c. daily, end of 7 days",significantly elevated G-CSF level
same,plasma G-CSF in tlr2−/− mice vs wild-type,"C57BL/6 mice [1]; SAA s.c. up to 7 days, 168 h",significantly less G-CSF
same,"plasma concentration of G-CSF, maximum","C57BL/6 mice [1]; SAA-injected C57BL/6 mice, 168 h",97 pg/mL
same,binding to TLR2:Fc fusion protein,TLR2:Fc fusion protein,dose-dependent increase in SAA binding
same,peripheral blood neutrophil numbers,"C57BL/6 mice [2]; C57BL/6 mice, SAA 120 μg/kg s.c. daily for 7 days, vs PBS, from 48 h",significant rise of neutrophil numbers
same,SAA-stimulated increase in peripheral blood neutrophils in tlr2−/− mice vs wild-type,C57BL/6 mice [2]; SAA s.c. up to 7 days,significantly lower
same,peripheral blood neutrophil count response in csf3−/− mice vs wild-type,"C57BL/6 mice [2]; csf3−/− mice, SAA 120 μg/kg/d s.c., 48, 120 and 168 h",significantly reduced response

# Source: patent US7629135B2, “Toll-like receptor agonists and antagonists and methods of use thereof” (The Board of Trustees of the University of Illinois, priority 2006, dated 2009)
